Measurements as given in patent publication US20060142201A1.

Legend:
[1] = biological target: human noradrenaline transporter (hNET) (human) (UniProt P23975)
[2] = biological target: human noradrenaline transporter (hNET) (human) (UniProt P23975); experiment: cell-based or functional assay

human noradrenaline transporter (hNET) (human), sequence (P23975 whole entry): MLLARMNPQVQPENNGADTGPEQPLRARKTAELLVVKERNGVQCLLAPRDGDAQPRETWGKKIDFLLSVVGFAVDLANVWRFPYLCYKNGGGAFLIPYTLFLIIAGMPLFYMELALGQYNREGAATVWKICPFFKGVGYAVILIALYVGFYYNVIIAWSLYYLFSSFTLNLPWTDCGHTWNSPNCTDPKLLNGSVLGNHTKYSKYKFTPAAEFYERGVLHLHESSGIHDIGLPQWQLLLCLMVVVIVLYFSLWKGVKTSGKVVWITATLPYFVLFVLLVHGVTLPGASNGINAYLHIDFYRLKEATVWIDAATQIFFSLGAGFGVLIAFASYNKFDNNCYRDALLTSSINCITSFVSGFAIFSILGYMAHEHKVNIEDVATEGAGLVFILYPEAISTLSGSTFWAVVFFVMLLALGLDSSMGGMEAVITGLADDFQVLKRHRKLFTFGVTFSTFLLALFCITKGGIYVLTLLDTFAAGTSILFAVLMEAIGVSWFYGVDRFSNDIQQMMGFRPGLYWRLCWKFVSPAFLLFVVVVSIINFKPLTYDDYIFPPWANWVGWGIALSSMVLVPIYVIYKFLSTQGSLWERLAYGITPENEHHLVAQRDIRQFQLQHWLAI

| Substance | Ay log IC50 for displacement of 3H-nisoxetine from hNET [1] [log M] | Ay log IC50 for inhibition of 3H-NA through hNET [2] [log M] |
| --- | --- | --- |
| χ-MrIA (SEQ ID NO. 1) (peptide; other documents disagree on this pair) | -5.14 | – |
| χ-MrIA (SEQ ID NO. 1) (peptide) | – | -6.3 |
